The target of experiment [1] is N9.
Experiment [2] deals with N1.

Some results are limits rather than exact numbers.

What is called Kd is the free concentration of one partner at which half of the binding sites on the other are occupied at equilibrium, for simple one-to-one binding. The term koff denotes the rate constant with which the complex falls apart. Lower therefore signals slow dissociation. A word on the kon: it is a measure of how fast the partners come together.

As to 1G01 (antibody), in experiment [1], the Kd is < 1 pM, the off-rate (koff) was < 1e-07 s⁻¹ and the kon was determined as 106000 M⁻¹ s⁻¹. In experiment [2], the dissociation constant (Kd) was 0.868 nM, the koff stood at 4.79e-05 s⁻¹ and the association rate constant (kon) stood at 55100 M⁻¹ s⁻¹.
On to FNI3 (antibody), for which, in experiment [1], the dissociation constant Kd is 2.86 pM, the koff amounted to 9.45e-07 s⁻¹ and the kon stood at 330000 M⁻¹ s⁻¹. In experiment [2], the dissociation constant (Kd) is < 0.001 nM, the off-rate constant (koff) was < 1e-07 s⁻¹ and the kon was found to be 39500 M⁻¹ s⁻¹.
As to FNI9 (antibody), the figures for the dissociation constant (Kd) in experiment [1] and in experiment [2] were < 1 pM and 0.0164 nM, respectively.

Values taken from patent US20240092876A1 (priority 2020, published 2024).
